{"source": "the DeepSol protein solubility set", "data": [{"experiment": "soluble on expression in E. coli; label from the status in PepcDB or PDB records", "values": [{"sequence": "MVARISVGKNLYGALAYNQNKVDEGGAKVLSAHLLRYPEDGRFRPDESVRQFLEWMPNHYRTEKPVIHISLNPHPDDVLTDGQLAEIGREYMQRLGYGNQPYLVFKHEDIGRHHIHIVSLRVDSEGRKVSDKFEYRRSKEITELLEQKYGLHPAEGRKKGEEWQLKPVDVAKGDIKRQIACTLKPLLELYSFRTMGELRALLSLYNIGVEEVKGEIGGRTYHGILYTALDGNGETAATPIKSSRLGRTAGAQQLDRKMRESAARIKSAPCRERLRPLVADALRQSVDERDFRDRLAKEQIDLVLRRNGTDRIYGVTFIDHRSRTVLNGSRLGKEFSANMLNGHFQEQPPNSLSPLLPPVPSAVASGNGEKIPGGLLSDMEPELNYVPRYPKLLKPDKKKRRRRYGRQD", "soluble on expression in E. coli": "not soluble"}, {"sequence": "MHRSFAAFSILLVAIPQASSFLFGGGCCGAPAVQSCCGSTSWAYAPPQVIGYERIPLYAKVPMPPPPTYVQPPLVGYVSPQQPVAPQGYQQQPQQQFMGQVEQGVEITPDQINSGYQPQQQMGFQSQQQQFSSIPNSGSSNYGADSSFSGSQPAGLVQSVASSAAFEAAGVAPSARRLRKFKN", "soluble on expression in E. coli": "not soluble"}, {"sequence": "MSLKIHGLIDAPFTPFYENGEVNYEPIEAYCQLLVRNGLQGVFINGSSGEGYMLTEDERMKLAERWMEVAPEGFKVIVHVGSTCVKSSKRLAEHAQKIGAWGIGAMAPPFPKVGRIEELVKYCEEIACGAPALPFYFYHIPAFNGAFLSMVAFLEAVDGRIPNFAGIKYTFESLYEYNQCRLYKNGKFDMLHGQDETILPCLAMGGAQGGIGGTTNYNGKELTGIIEAWKAGDLELARERQNFAQEVINVICHYRGNIVGGKRIMKLIGLDLGKNRTPFQNMTDEEEAAMKAELEAINFFEREGHHHHHH", "soluble on expression in E. coli": "soluble"}, {"sequence": "LRTITRDDWETCIDLKVARHQAHFVASNLYSLAQSRFLPGFRAVGIHHGGRMVGFALYGPDADDGHYWLYRLMIDRRYQGKGHGRAALQRIIASVRRTRRRSDRLMVAYAVDNDVARQLYRDAGFVEQGLAPWGETMACLMLPEPSHRSGKVAGAPGGRAAHGVPA", "soluble on expression in E. coli": "not soluble"}, {"sequence": "SLQVDASGHQILLNYRKERSLQEFVPQVSLTEVLTGKINANTVKNKIVLIGTTAESFEDYSFTPNITNQGAIRKYQVLSLQAQMISQLLSAALDGRSLIWAWSVWQETIWIWGWSLTGSLLAWYIR", "soluble on expression in E. coli": "not soluble"}, {"sequence": "MNMLEKIQSQLEHLSKSERKVAEVILASPDNAIHSSIAALALEANVSEPTVNRFCRSMDTRGFPDFKLHLAQSLANGTPYVNRNVNEDDSVESYTGKIFESAMATLDHVRHSLD", "soluble on expression in E. coli": "not soluble"}, {"sequence": "MGHQVAIYDSRPFVGGKVGSWIDADGNHIEMGLHVFFFNYANLFALMRKVGAFENLLPKAHTHTFINKGGEVGELDFRFPIGAPFNGLKAFFTTSQLTWLDKLQSALALGTSPLVRGILDYEGAMKIIRALDRISFADWFRSHGGSEGSLKRMWNPIAYALGFIDTENISARCMLTVFQMFAAKTEASKLNLLAGSPAEYLHKPILDYIQARGATLHLQRRVREIEYTETNGQTVVTGLQIADGDAVERVEADVYLAACDVPGIQRLLPEAWRKWSEFDNIYKLDAVPVATVQLRFDGWVTELVDREKRHQLDHATGLDNLLYTADADFSCFTDLALSSPKDYYRKGQGSLLQCVLTPGDPFIAMKNEDIAQHVLKQVHELFPSSRDLNMTWSNVVKLAQSLYREAPGMDPFRPDQKTPIANFFLAGSYTQQDYIDSMEGATISGRRAAKAMLEAQAIAALEHHHHHH", "soluble on expression in E. coli": "not soluble"}, {"sequence": "MSLSEKVTIYDIAEKLNITAATVSRALNNNPKIKESTRELVIKTAASMNYKQNKLALALKSGRSNNIGVIVPRIDSNFFASVIRGIEEELQPHGYQVIICQTHESKQRENENLYTLIDAQVDGILMSVTDVTSENDDAFNNVLQKNVPLIFFDRSKHIDGVSSVTINDFRGGYLTTKHLINEGCRYIAHFSGDQSLEIFKNRFLGYKQALLDHGIEFKEEYVIPVKSMVDAGKEAVDKLLQLETPPDAIFSSSDFAALGAIQELKERNISIPNEFCVAGFSNEPFTKFMELSITSVDQSPLEMGKMAARVFLEQVDKTDTIKIEKKVVLAPELHIRKSSSRTNFEGHHHHHH", "soluble on expression in E. coli": "soluble"}, {"sequence": "MAIEHFSTLKQHLSSQIIGQEALVENLLIALLANGHLIVEGPPGLAKTRAVNALAQGLEADFHRIQFTPDLLPADLTGTDIYRPEDGTFVFQPGPLFQNLVLADEINRAPAKVQSALLEAMAEGQITVGRKTYDLPELFLVMATQNPIEQEGTYPLPEAQLDRFLMHIEIGYPDAESELAILKLNRGEALRSNANHGNDSSEKETSTKENSLRTLSQSEIFSAREQVLNIHMAPSLENYIVDLIIATRQPEKYDDKLSTWLAFGASPRATIALDRCARARAWLHNRDFVSPEDIQAVFHNALRHRILLSYQAEAEGITANQVLDYILTQVAVALEHHHHHH", "soluble on expression in E. coli": "soluble"}, {"sequence": "MVPSTFSRLKAARCLPVVLAALIFVGCGTHTPDQSTAYMQGTAQADSAFYLQQMQQSSDDTRINWQLLAIRALVKEGKTGQAVELFNQLPQELNDSQRREKTLLAVEIKLAQKDFAGAQNLLAKITPADLEQNQQARYWQAKIDASQGRPSIDLLRALIAQEPLLGAKEKQQNIDATWQALSSMTQEQANTLVINADENILQGWLDLQRVWFDNRNDPDMMKAGIADWQKRYPNNPGAKMLPTQLVNVKAFKPASTNKIALLLPLNGQAAVFGRTIQQGFEAAKNIGTQPVAAQVAAAPAADVAEQPQPQTADGVASPAQASVSDLTGDQPAAQPVPVSAPATSTAAVSAPANPSAELKIYDTSSQPLSQILSQVQQDGASIVVGPLLKNNVEELLKSNTPLNVLALNQPENIENRVNICYFALSPEDEARDAARHIRDQGKQAPLVLIPRSSLGDRVANAFAQEWQKLGGGTVLQQKFGSTSELRAGVNGGSGIALTGTPITPRATTDSGMTTNNPTLQTTPTDDQFTNNGGRVDAVYIVATPGEIAFIKPMIAMRNGSQSGATLYASSRSAQGTAGPDFRLEMEGLQYSEIPMLAGGNLPLMQQALSAVNNDYSLARMYAMGVDAWSLANHFSQMRQVQGFEINGNTGSLTANPDCVINRKLSWLQYQQGQVVPAS", "soluble on expression in E. coli": "soluble"}, {"sequence": "MSLTSEIIDVHMHCFVGRQQETALARDIALLRREGLRRMVVAGLVNTHPDPETTWNLIPDYVENHGDPHFNEADDLLALAESVDHALLPFVDTRYLRGDVATALDGYMGQGFKGVKGIYLPDNENDLGVGNVPDTLGISLEQYRRREWDLFAYAENHDLPLLYHMDARRYGDVMKDLLDDFPRVRVNFPHLGIGRKAFSAFLDRYPNIFTDIAGLLPYMRSNPASYRDFIMHYPDRICFGTDTFLYQAGSALDYISMVRELRLPEEIEAQVFNGNPTRFLGCVLYGAEGHHHHHH", "soluble on expression in E. coli": "not soluble"}, {"sequence": "MGSDKIHHHHHHMRIGCVLARKGKMMMNGELAGFTIPRLGMGTMALAIEGRPDRDTAIRTIHAGLDAGVRYLDTAWSYYLPSEPGTGTAKDLGYGEKLVRDALASWNGPRDEVLVATKTGYRRTMEIPAFVAPVSDSPESDTQGRDSEGCSRRPGGERQHLQAAGSQYGWMADSRPETMIRDAKESALHLGVDTLDLLYSHGPDPEVAYEDQVGALKQLLNEGVIRYAGISRVDNAQIDIAREILGDKLIAVQNQFSPSHPDPEHTMEHCAELGLAFVCWSPLGGFLDAFDQRAYDPFRTVAGNHGCSYQRVVLAWELSRYERLFTIPSARNPQEINDSFAATELTLTQDELAMLNASVDARRG", "soluble on expression in E. coli": "not soluble"}, {"sequence": "MSLHSVAEREKRNAVHDSLTGLPNRKYCFELIDDRIQSGDPFSVILFDVVNFKQVNDAMGHFCGDQLLIQIGQRLQDKLKGSDKIFRVGGDEFVILTSSACEKTGTELIESLDCALSARFHLDEFQVSSRVVFGISTYPYDAISNDLLIKHADIAMYHAKRNGNLFAFYHDDMNVGAKYQLEISSRIQCALEKEEFQLYYQPLIDANTNLAVGFEAVIRWHDENGKTISPNDFIPIAERSNQVHNITMWVLGQVEKDLKTFIEKGIKLPVHVNLSAKDLSSNLLFHRLEKLLENNPQFADLISLEITETMAIDRVVELNPLIHQIKGLGIKISLDDFGTGYSSLSLLRDLPVDQIKIDRSFLCTANRTEGSRSIVENTIALAHGLGYSVVAEGVQDMDTLYFLRSRGCDIIQGYLFCPALPLNEVINWVNEHDDKQSHTRRAEGHHHHHH", "soluble on expression in E. coli": "soluble"}]}]}
